Experimental findings from the RNAGym collection of RNA variant scans (doi:10.7554/elife.80360) are described below.

Sequences and labels used below:
B1: CPEB3 Ribozyme (parent)
chain: GGGGGCCACAGCAGAAGCGUUCACGUCGCGGCCCCUGUCAGAUUCUGGUGAAUCUGCGAAUUCUGCUGU

The variants in the data set derive from B1. Description: self-cleavage, relative activity (ratio to wild type); higher = more cleavage; co-transcriptional.
Turning to C6A C29U, the self-cleavage stood at 0.234.

Turning to C6A C29A, the self-cleavage was found to be 0.213.

Turning to G5U C29G, the self-cleavage was 0.0724.

Take G5U C29A: the self-cleavage is 0.0808.

Take C6A A16G: the self-cleavage came out at 0.418.

On to C6A A16C, for which the self-cleavage came to 0.0824.

For the variant C6A A16U, the self-cleavage was 0.159.

Take G5U U43G: the self-cleavage was 0.161.

For the variant G5U C7U, the self-cleavage stood at 0.0819.

For G5U C7G, the self-cleavage amounted to 0.0615.

As to G5U C7A, the self-cleavage was 0.086.

Take G5U G50C: the self-cleavage is 0.341.

With G5U G50U, the self-cleavage came to 0.313.

Turning to G5U C6U, the self-cleavage was found to be 0.111.

For C6A C34U, the self-cleavage turned out to be 0.339.

For G5U C54U, the self-cleavage came to 0.231.

With C6A C22A, the self-cleavage came to 0.165.

In the case of C6A C22U, the self-cleavage was 0.0847.

Regarding G5U A59U, the self-cleavage was found to be 0.125.

In the case of C6A C12G, the self-cleavage came out at 0.26.

Regarding C6A C12A, the self-cleavage came to 0.16.

Turning to G5U C9A, the self-cleavage was found to be 0.716.

Regarding G5U C9U, the self-cleavage is 0.877.

Consider G5U U38C, for which the self-cleavage was 0.174.

Consider C6A A59G, for which the self-cleavage is 0.464.

C6A A51C: the self-cleavage was determined as 0.458.

Consider C6A A51G, for which the self-cleavage was 0.604.

On to C6A A51U, for which the self-cleavage turned out to be 0.545.

Turning to G5U C24G, the self-cleavage was 0.0967.

On to G5U C24U, for which the self-cleavage turned out to be 0.0968.

In the case of G5U G68A, the self-cleavage is 0.886.

As to G5U G68C, the self-cleavage turned out to be 0.716.

On to G5U G68U, for which the self-cleavage stood at 0.793.

Take G5U C63U: the self-cleavage was found to be 0.24.

Turning to G5U C63G, the self-cleavage amounted to 0.0897.

Regarding G5U C63A, the self-cleavage amounted to 0.114.

Take G5U C27U: the self-cleavage was 0.032.

Regarding G5U C27G, the self-cleavage came out at 0.0619.

On to G5U U44G, for which the self-cleavage was found to be 0.0852.

As to G5U U44C, the self-cleavage was determined as 0.192.

Take G5U U44A: the self-cleavage was 0.125.

In the case of C6A C9G, the self-cleavage was 1.02.

In the case of C6A C9A, the self-cleavage was found to be 0.961.

Consider G5U U61C, for which the self-cleavage came out at 0.0722.

Turning to G5U U61A, the self-cleavage was determined as 0.108.

For G5U A40C, the self-cleavage was 0.088.

G5U G28U: the self-cleavage was 0.0687.

In the case of G5U G28A, the self-cleavage came to 0.046.

G5U G28C: the self-cleavage came to 0.0876.

For C6A A8U, the self-cleavage amounted to 0.607.

For the variant C6A A8C, the self-cleavage came to 0.733.

For the variant G5U G47A, the self-cleavage was determined as 0.294.

With G5U G47C, the self-cleavage turned out to be 0.277.

In the case of G5U G47U, the self-cleavage turned out to be 0.296.

In the case of G5U G30U, the self-cleavage amounted to 0.0993.

For the variant G5U G30C, the self-cleavage was determined as 0.08.

As to G5U G37U, the self-cleavage was found to be 0.0584.

For G5U G37C, the self-cleavage was determined as 0.119.

As for G5U C45U, the self-cleavage was 0.291.

Take G5U C45A: the self-cleavage came to 0.208.

Regarding G5U A13U, the self-cleavage was 0.139.

As to C6A C18A, the self-cleavage stood at 0.167.

On to C6A C18U, for which the self-cleavage was 0.146.

Consider C6A C18G, for which the self-cleavage worked out at 0.145.

As to C6A C33U, the self-cleavage amounted to 0.347.

C6A C33G: the self-cleavage amounted to 0.108.

Turning to G5U U26G, the self-cleavage came to 0.103.

In the case of G5U U26A, the self-cleavage came out at 0.132.

On to G5U U36G, for which the self-cleavage was found to be 0.343.

On to G5U U36A, for which the self-cleavage worked out at 0.0704.

On to G5U G17C, for which the self-cleavage came to 0.0663.

For the variant G5U G17A, the self-cleavage came out at 0.082.

In the case of G5U G17U, the self-cleavage came to 0.0412.

With C6A A42G, the self-cleavage was determined as 0.609.

Regarding C6A A42C, the self-cleavage is 0.221.

As for G5U A60C, the self-cleavage was 0.0763.

As to G5U A60U, the self-cleavage was found to be 0.149.

As for G5U A60G, the self-cleavage amounted to 0.0935.

In the case of G5U U53G, the self-cleavage was found to be 0.152.

With G5U G11U, the self-cleavage came to 0.098.

In the case of G5U U49C, the self-cleavage came out at 0.232.

Take G5U U49A: the self-cleavage was found to be 0.316.

In the case of C6A C7A, the self-cleavage was 0.143.

On to C6A, for which the self-cleavage was found to be 0.705.

As to G5U U21A, the self-cleavage came to 0.158.

Take G5U U21C: the self-cleavage amounted to 0.119.

Regarding G5U C34G, the self-cleavage turned out to be 0.0508.

Turning to G5U C34A, the self-cleavage worked out at 0.0978.

On to C6A A52G, for which the self-cleavage was 0.58.

As for C6A A52U, the self-cleavage worked out at 0.559.

G5U A51C: the self-cleavage was determined as 0.187.

For the variant G5U A51U, the self-cleavage turned out to be 0.236.

Regarding G5U A51G, the self-cleavage stood at 0.198.

With G5U G19U, the self-cleavage amounted to 0.0974.

As to G5U G19C, the self-cleavage is 0.0535.

For C6A A60U, the self-cleavage came out at 0.226.

As to C6A A60G, the self-cleavage was 0.326.

With C6A A60C, the self-cleavage stood at 0.17.

G5U C57A: the self-cleavage is 0.11.

Regarding G5U A16G, the self-cleavage was 0.14.

On to G5U A16U, for which the self-cleavage amounted to 0.127.

Regarding G5U G14U, the self-cleavage amounted to 0.0546.

Take G5U G14A: the self-cleavage was found to be 0.078.

Take C6A A13G: the self-cleavage was 0.506.

Take G5U U62A: the self-cleavage was found to be 0.123.

Take G5U C35G: the self-cleavage turned out to be 0.08.

Take G5U G31A: the self-cleavage turned out to be 0.132.

As for G5U G31C, the self-cleavage came out at 0.0656.

Regarding C6A C27A, the self-cleavage amounted to 0.154.

With C6A C27U, the self-cleavage was determined as 0.159.

As for C6A C27G, the self-cleavage was determined as 0.122.

In the case of G5U C66A, the self-cleavage is 0.19.

As to G5U C66G, the self-cleavage was determined as 0.133.

As to G5U C66U, the self-cleavage turned out to be 0.299.

As to G5U A23U, the self-cleavage is 0.402.

With G5U A23C, the self-cleavage came to 0.211.

Consider G5U A23G, for which the self-cleavage is 0.253.

In the case of G5U U64A, the self-cleavage came out at 0.109.

On to G5U U64C, for which the self-cleavage worked out at 0.195.

Consider G5U U64G, for which the self-cleavage was 0.194.

Consider G5U G65A, for which the self-cleavage stood at 0.187.

On to G5U G65U, for which the self-cleavage was found to be 0.0885.

Regarding C6A A40G, the self-cleavage is 0.426.

C6A A40C: the self-cleavage is 0.177.

As for C6A A40U, the self-cleavage turned out to be 0.346.

On to G5U U55A, for which the self-cleavage is 0.0876.

Turning to G5U U55G, the self-cleavage amounted to 0.0798.

Take C6A C24G: the self-cleavage was determined as 0.0842.

Regarding C6A C24A, the self-cleavage was determined as 0.162.

With G5U U67G, the self-cleavage was 0.615.

For C6A A23U, the self-cleavage is 0.749.

C6A A23G: the self-cleavage worked out at 0.511.

Turning to C6A A23C, the self-cleavage came to 0.519.

Consider G5U G41C, for which the self-cleavage came out at 0.113.

As for G5U G41U, the self-cleavage was determined as 0.0869.

As for G5U C12U, the self-cleavage was found to be 0.188.

Consider G5U C39U, for which the self-cleavage was determined as 0.101.

As to G5U C18A, the self-cleavage was found to be 0.0315.

Turning to G5U C18G, the self-cleavage is 0.0898.

Consider C6A A10U, for which the self-cleavage came to 0.903.

For the variant C6A A10C, the self-cleavage was 0.67.

In the case of C6A A10G, the self-cleavage was 0.798.

As for G5U A52G, the self-cleavage was 0.266.

Take G5U A52U: the self-cleavage turned out to be 0.232.

For G5U G48U, the self-cleavage was found to be 0.332.

With G5U G48C, the self-cleavage is 0.327.

Turning to G5U U69G, the self-cleavage worked out at 0.671.

As for G5U U46C, the self-cleavage worked out at 0.254.

Turning to G5U U46G, the self-cleavage was determined as 0.321.

Turning to G5U U46A, the self-cleavage was found to be 0.24.

Regarding C6A A15C, the self-cleavage was found to be 0.235.

Take G5U C22G: the self-cleavage amounted to 0.09.

As for C6A C32A, the self-cleavage is 0.349.

Regarding C6A C32U, the self-cleavage amounted to 0.123.

On to C6A C32G, for which the self-cleavage is 0.147.

As to G5U G25C, the self-cleavage turned out to be 0.0917.

Take G5U G25U: the self-cleavage turned out to be 0.0766.

Regarding G5U G25A, the self-cleavage came out at 0.0881.

Consider G5U A42U, for which the self-cleavage stood at 0.118.

With G5U A42C, the self-cleavage was 0.0793.

With G5U A42G, the self-cleavage is 0.343.

Take G5U C32A: the self-cleavage worked out at 0.953.

Turning to G5U C32G, the self-cleavage came to 0.815.

For G5U C32U, the self-cleavage amounted to 0.568.

As to G5U U20C, the self-cleavage turned out to be 0.0958.

Consider G5U U20G, for which the self-cleavage was 0.0745.

Take G5U U20A: the self-cleavage came out at 0.0505.
